Results published in the supplement of paper PMC7877785.
± gives the uncertainty stated by the source.

Experiment: self-splicing fitness, log relative to wild type (ln ratio); higher = more splicing; Tetrahymena group I intron in knt gene, E. coli kanamycin selection, DiMSum; sequences stand for … in CUCUCU…GGAGGGAAAAGUUAUCAGGCAUGCACCUGGUAGCUAGUCUUUAAACCAAUAGAUUGCAUCGGUUUAAAAGGCAAGACCGUCAAAUUGCGGGAAAGGGGUCAACAGCCGUUCAGUACCAAGUCUCAGGGGAAACUUUGAGAUGGCCUUGCAAAGGGUAUGGUAAUAAGCUGACGGACAUGGUCCUAACCACGCAGCCAAGUCCUAAGUCAACAGAUCUUCUGUUGAUAUGGAUGCAGUUCACAGACUAAAUGUCGGUCGGGGAAGAUGUAUUCUUCUCAUAAGAUAUAGUCGGACCUCUCCUUAAUGGGAGCUAGCGGAUGAAGUGAUGCAACACUGGAGCCGCUGGGAACUAAUUUGUAUGCGAAAGUAUAUUGAUUAGUUUUGGAGUACUCGUGGUCG
Method in brief: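 The eight P1ex-region nucleotides of an intron in the knt kanamycin-resistance gene on pET-22b(+) were all randomised and the library put into E. coli BL21(DE3). Six replicate transformations were grown overnight at 37°C or 30°C on LB agar with or without 25 μg/mL kanamycin, together with 100 μg/mL carbenicillin, 50 μM IPTG and 0.2% rhamnose. Colonies were pooled and amplicon-sequenced on an Illumina HiSeq 2500. Fitness from DiMSum is the error-weighted combination of wild-type-normalised replicate fold changes, kanamycin over none.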

| Sequence | self-splicing fitness (ln) (30 °C) | self-splicing fitness (ln) (37 °C) |
| --- | --- | --- |
| GAACAGCAAUAUUACGGGGU | -2.39 ± 0.081 | -2.57 ± 0.15 |
| GAACAGCAAUAUUACGGUGA | -1.08 ± 0.071 | 0.0381 ± 0.08 |
| GAACAGCAAUAUUACGUCCC | -1.98 ± 0.16 | -1.25 ± 0.19 |
| GAACAGCAAUAUUACGUCCU | -1.24 ± 0.09 | -0.941 ± 0.11 |
| GAACAGCAAUAUUACGUUAU | -2.01 ± 0.066 | -1.13 ± 0.077 |
| GAACAGCAAUAUUACGUUGU | -3.8 ± 0.21 | -2.24 ± 0.12 |
| GAAGAGCAAUAUUACGAAAC | -2.57 ± 0.27 | -1.38 ± 0.39 |
| GAAGAGCAAUAUUACGAGCU | -4.07 ± 0.21 | -1.61 ± 0.14 |
| GAAGAGCAAUAUUACGAGGG | -3.54 ± 0.2 | -3.02 ± 0.28 |
| GAAGAGCAAUAUUACGAGGU | -4.02 ± 0.39 | -3.52 ± 0.33 |
| GAAGAGCAAUAUUACGAGUC | -4.22 ± 0.46 | -2.8 ± 0.47 |
| GAAGAGCAAUAUUACGCUGG | -1.92 ± 0.24 |  |
| GAAGAGCAAUAUUACGCUUU | -4.12 ± 0.3 | -1.91 ± 0.28 |
| GAAGAGCAAUAUUACGGAGG | -2.48 ± 0.2 | -2.01 ± 0.31 |
| GAAGAGCAAUAUUACGGCCU | -1.15 ± 0.14 | -0.824 ± 0.19 |
| GAAGAGCAAUAUUACGGCUC | -1.85 ± 0.24 | -2.06 ± 0.3 |
| GAAGAGCAAUAUUACGGUUG | -3.86 ± 0.35 | -2.18 ± 0.38 |
| GAAGAGCAAUAUUACGUAGC | -2.27 ± 0.21 | -2.31 ± 0.21 |
| GAAGAGCAAUAUUACGUAUC | -3.42 ± 0.21 | -3.41 ± 0.22 |
| GAAGAGCAAUAUUACGUCAA | -3.04 ± 0.27 | -2.16 ± 0.22 |
| GAAGAGCAAUAUUACGUCAC |  | -2.13 ± 0.23 |
| GAAGAGCAAUAUUACGUCGA | -1.47 ± 0.21 | -1.76 ± 0.31 |
| GAAGAGCAAUAUUACGUCGG | -3.36 ± 0.3 | -2.37 ± 0.3 |
| GAAGAGCAAUAUUACGUGCC | -3.3 ± 0.19 | -1.81 ± 0.23 |

| Sequence | self-splicing fitness (ln) (30 °C) | self-splicing fitness (ln) (37 °C) |
| --- | --- | --- |
| GAAGAGCAAUAUUACGUGGC | -2.97 ± 0.24 | -3.01 ± 0.33 |
| GAAGAGCAAUAUUACGUGGG | -3.22 ± 0.16 | -3.05 ± 0.2 |
| GAAGAGCAAUAUUACGUUCC | -4.33 ± 0.28 | -2.04 ± 0.31 |
| GAAGAGCAAUAUUACGUUGA | -3.21 ± 0.19 | -2.63 ± 0.2 |
| GAAGAGCAAUAUUACGUUGU | -3.56 ± 0.28 | -2.83 ± 0.24 |
| GAAGAGCAAUAUUACGUUUA | -1.61 ± 0.15 | -2.56 ± 0.2 |
| GAAUAGCAAUAUUACGACCU | -0.378 ± 0.11 | 0.363 ± 0.13 |
| GAAUAGCAAUAUUACGACGG | -3.32 ± 0.36 | -1.1 ± 0.19 |
| GAAUAGCAAUAUUACGAGGA | -2.85 ± 0.33 | -1.5 ± 0.18 |
| GAAUAGCAAUAUUACGAGGU | -4 ± 0.36 | -2.61 ± 0.24 |
| GAAUAGCAAUAUUACGAGUA | -2.44 ± 0.17 | -1.98 ± 0.17 |
| GAAUAGCAAUAUUACGAUAA | -1.51 ± 0.1 | -0.77 ± 0.13 |
| GAAUAGCAAUAUUACGAUCG | 1.29 ± 0.19 | -0.178 ± 0.27 |
| GAAUAGCAAUAUUACGCAGC | -2.72 ± 0.2 | -1.93 ± 0.2 |
| GAAUAGCAAUAUUACGCCCA | -0.91 ± 0.17 | -0.732 ± 0.24 |
| GAAUAGCAAUAUUACGCGGU | -2.24 ± 0.15 | -2.75 ± 0.27 |
| GAAUAGCAAUAUUACGCUCC |  | -1.37 ± 0.33 |
| GAAUAGCAAUAUUACGCUCG | 0.178 ± 0.15 | -0.999 ± 0.16 |
| GAAUAGCAAUAUUACGCUGC | -3.36 ± 0.45 | -3.32 ± 0.32 |
| GAAUAGCAAUAUUACGGAAA | -1.98 ± 0.16 | -1.31 ± 0.14 |
| GAAUAGCAAUAUUACGGAAG | -4.14 ± 0.39 | -2.1 ± 0.25 |
| GAAUAGCAAUAUUACGGACA | -0.557 ± 0.12 | -0.0249 ± 0.16 |
| GAAUAGCAAUAUUACGGCAG | -3.67 ± 0.39 | -1.93 ± 0.25 |
| GAAUAGCAAUAUUACGGCGU | -0.554 ± 0.15 | 0.178 ± 0.16 |
